Assay [1] concerns the target T1, epitope mapping peptide #15 (human, not fully specified (C-terminus)).
T1 peptide: VINPETGEQIQSWYK(Biotin)
Briefly: labelled AK1967 on biotinylated peptide #15 captured on avidin plate, chemiluminescence. As to the method: (§1) The plates were filled with 200 μl of labelled and diluted detection antibody (tracer) and incubated for 4 h at room temperature. Unbound tracer was removed by washing 4 times with 350 μl washing solution (20 mM PBS, pH 7.4, 0.1% Triton X-100). Well-bound chemiluminescence was measured by using the Centro LB 960 luminometer (Berthold Technologies GmbH & Co. KG).

Assay [2] concerns the target T2, epitope mapping peptide #12 (human, not fully specified (C-terminus)).
T2 peptide: PETGEQIQSWYK(Biotin)
Briefly: labelled AK1967 on biotinylated peptide captured on avidin plate, chemiluminescence. As to the method: as §1

Assay [3] addresses T3, epitope mapping peptide #13 (human, not fully specified (C-terminus)).
T3 peptide: NPETGEQIQSWYK(Biotin)
The description is as above. As to the method: as §1

Assay [4] concerns the target T4, epitope mapping peptide #8 (human).
T4 peptide: Biotin-AFNFDQETVINPE
The description is as above. As to the method:
as §1

Assay [5] has as its target T5, epitope mapping peptide #7 (human).
T5 peptide: Biotin-AFNFDQETVINPET
Described as above. The method, then: as §1

Assay [6] deals with T6, epitope mapping peptide #10 (human).
T6 construct: also called bio-AFNFDQETVIN
T6 peptide: Biotin-AFNFDQETVIN
Described as above. As to the method:
as §1

The target in assay [7] is T7, epitope mapping peptide #11 (human, not fully specified (C-terminus)).
T7 peptide: ETGEQIQSWYK(Biotin)
The description is as above. The method, then: as §1

The target in assay [8] is T8, epitope mapping peptide #9 (human).
T8 peptide: Biotin-AFNFDQETVINP
The description is as above. The method, then:
as §1

Assay [9] addresses T9, epitope mapping peptide #2 (human).
T9 peptide: Biotin-AFNFDQETVINPETGEQIQ
Description: labelled AK1967 on biotinylated peptide #2 captured on avidin plate, chemiluminescence. The method, then: as §1

Assay [10] has as its target T10, epitope mapping peptide #17 (human, not fully specified (C-terminus)).
T10 peptide: ETVINPETGEQIQSWYK(Biotin)
Briefly: labelled AK1967 on biotinylated peptide #17 captured on avidin plate, chemiluminescence. As to the method: as §1

Assay [11] concerns the target T11, epitope mapping peptide #16 (human, not fully specified (C-terminus)).
T11 peptide: TVINPETGEQIQSWYK(Biotin)
Description: labelled AK1967 on biotinylated peptide #16 captured on avidin plate, chemiluminescence. The method, then: as §1

In assay [12] the target is T12, epitope mapping peptide #4 (human).
T12 peptide: Biotin-AFNFDQETVINPETGEQ
Briefly: labelled AK1967 on biotinylated peptide #4 captured on avidin plate, chemiluminescence. The method, then:
as §1

In assay [13] the target is T13, epitope mapping peptide #3 (human).
T13 peptide: Biotin-AFNFDQETVINPETGEQI
Briefly: labelled AK1967 on biotinylated peptide #3 captured on avidin plate, chemiluminescence. As to the method: as §1

Assay [14] concerns the target T14, epitope mapping peptide #14 (human, not fully specified (C-terminus)).
T14 peptide: INPETGEQIQSWYK(Biotin)
Briefly: labelled AK1967 on biotinylated peptide #14 captured on avidin plate, chemiluminescence. As to the method:
as §1

For assay [15], the target named is T15, epitope mapping peptide #6 (human).
T15 peptide: Biotin-AFNFDQETVINPETG
Briefly: labelled AK1967 on biotinylated peptide #6 captured on avidin plate, chemiluminescence. The method, then: as §1

Assay [16] addresses T16, epitope mapping peptide #1 (human, biotinylated at the N- or C-terminus (which end is in the drawing only)).
T16 peptide: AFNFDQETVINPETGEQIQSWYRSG
Briefly: labelled AK1967 on biotinylated peptide #1 captured on avidin plate, chemiluminescence. As to the method: as §1

The target of assay [17] is T17, epitope mapping peptide #5 (human).
T17 peptide: Biotin-AFNFDQETVINPETGE
Briefly: labelled AK1967 on biotinylated peptide #5 captured on avidin plate, chemiluminescence. As to the method:
as §1

No end group written: not given here. *: point of attachment. Biotin = O=C1N[C@H]2[C@H](CS[C@H]2CCCCC(=O)*)N1

B1: monoclonal anti-DPP3 antibody AK1967 (clone 1967 of SEQ ID No.: 2) (antibody, V domains shown)
VH: QVTLKESGPGILQPSQTLSLTCSFSGFSLSTSGMSVGWIRQPSGKGLEWLAHIWWNDNKSYNPALKSRLTISRDTSNNQVFLKIASVVTADTGTYFCARNYSYDYWGQGTTLTVSS
VL: DVVVTQTPLSLSVSLGDPASISCRSSRSLVHSIGSTYLHWYLQKPGQSPKLLIYKVSNRFSGVPDRFSGSGSGTDFTLKISRVEAEDLGVYFCSQSTHVPWTFGGGTKLEIK
notes: Murine monoclonal; A human IgG1 kappa backbone was used for chimerization and humanization; The Octet run captured 'AK1967' on anti-human Fc biosensors, so the format in that run is uncertain; also called Procizumab; PCZ
As to B1, the binding result is “binds” in [1]; “no binding” in assay [2]; “no binding” in assay [3]; “no binding” in [4]; “no binding” in assay [5]; “no binding” in assay [6]. Moreover, the binding result in assay [7] is “no binding”; in [8], “no binding”; in [9] it was “binds”; in assay [10], “binds”; in assay [11], “binds”; in assay [12], “binds”. In addition, the binding result in assay [13], in [14], in [15], in assay [16] and in [17] was “binds” in each case.

For the origin of these results see patent publication US20230213519A1 (4TEEN4 PHARMACEUTICALS, published 2023).
